± gives the standard error. For some of these results: This sample holds only a part of the variants without activity.
B1: glmS ribozyme (parent)
chain: AUAAAAGCGCCAGAACUACAGAAAUGUAGUUGACGAGGAGGAGGUUUAUCGAAUUUUCGGCGGAUGCCUCCAAA

Assays:
Details in all cases: with glucosamine-6-phosphate
glucosamine-6-phosphate [1] = variants of: B1; experiment: kcat; higher = faster cleavage; RNA array
How it was run: (§1)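 The measurements used barcoded ribozyme variants on sequenced MiSeq chips, transcribed in situ by E. coli RNA polymerase and tracked at 37 °C with a hybridised Cy3 probe. Glucosamine-6-phosphate, 40 μM to 10 mM in HEPES/KCl/Mg(OAc)2 buffer, was flowed in while tiles were imaged over ~14 h. Baseline-normalised signals, also normalised to non-cleaving reference variants, gave per-tile medians that were fit to one- or two-exponential decays for kobs. kcat and KM resulted from weighted Michaelis–Menten fits across concentrations.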

glucosamine-6-phosphate [2] = variants of: B1; experiment: KM; higher = weaker cofactor use; RNA array
How it was run: as §1

glucosamine-6-phosphate [3] = variants of: B1; experiment: self-cleavage kobs at 160 uM GlcN6P; higher = faster cleavage; RNA array
How it was run: as §1

glucosamine-6-phosphate [4] = variants of: B1; experiment: self-cleavage kobs at 640 uM GlcN6P; higher = faster cleavage; RNA array
How it was run: as §1

glucosamine-6-phosphate [5] = variants of: B1; experiment: self-cleavage kobs at 2500 uM GlcN6P; higher = faster cleavage; RNA array
How it was run: as §1

glucosamine-6-phosphate [6] = variants of: B1; experiment: self-cleavage kobs at 10000 uM GlcN6P; higher = faster cleavage; RNA array
How it was run: as §1

glucosamine-6-phosphate [7] = variants of: B1; experiment: self-cleavage kobs at 40 uM GlcN6P; higher = faster cleavage; RNA array
How it was run: as §1

| Variant | kcat (glucosamine-6-phosphate [1]) [s⁻¹] | KM (glucosamine-6-phosphate [2]) [µM] | self-cleavage kobs at 160 uM GlcN6P (glucosamine-6-phosphate [3]) [s⁻¹] | self-cleavage kobs at 640 uM GlcN6P (glucosamine-6-phosphate [4]) [s⁻¹] | self-cleavage kobs at 2500 uM GlcN6P (glucosamine-6-phosphate [5]) [s⁻¹] | self-cleavage kobs at 10000 uM GlcN6P (glucosamine-6-phosphate [6]) [s⁻¹] | self-cleavage kobs at 40 uM GlcN6P (glucosamine-6-phosphate [7]) [s⁻¹] |
| --- | --- | --- | --- | --- | --- | --- | --- |
| U57C | 0.000311 ± 3.8e-06 | 3180 ± 76 | 1.34e-05 ± 2.2e-06 | 5.24e-05 ± 1.5e-06 | 0.000136 ± 3.2e-06 | 0.000236 ± 4.4e-06 | – |
| A6G U30A | 5.86e-05 ± 1.4e-05 | – | – | – | 3.73e-05 ± 1e-05 | 4.4e-05 ± 1.9e-05 | – |
| G37U U57G | < 1e-05 | – | – | – | < 1e-05 | – | – |
| G26U A48C | 0.000587 ± 6e-05 | 4480 ± 710 | – | 7.06e-05 ± 1.4e-05 | 0.000222 ± 3.5e-05 | 0.000394 ± 7.4e-05 | – |
| C11U A52U | 5.56e-05 ± 4.4e-06 | 1620 ± 690 | – | – | 3.57e-05 ± 1.8e-05 | 4.77e-05 ± 8.4e-06 | – |
| G40C U45A | 0.00147 ± 0.00022 | 823 ± 200 | 0.000183 ± 3.5e-05 | 0.000631 ± 7.8e-05 | 0.00123 ± 0.00018 | 0.00131 ± 0.00019 | 7.94e-05 ± 9.2e-06 |
| U31G G40U | 0.00241 ± 0.0003 | 2730 ± 500 | 0.000115 ± 1.6e-05 | 0.000515 ± 5.8e-05 | 0.00119 ± 0.00013 | 0.00183 ± 0.0002 | 3.85e-05 ± 7.6e-06 |
| U56G U65G | 0.00371 ± 0.00083 | 7360 ± 2500 | – | 0.000301 ± 6e-05 | 0.000811 ± 0.00023 | 0.00218 ± 0.00031 | 3.29e-05 ± 1.6e-05 |
| C16G C50G | 4.79e-05 ± 1.9e-05 | – | – | – | 6.05e-05 ± 1.4e-05 | – | – |
| A52C C71U | 1.4e-05 ± 5.1e-07 | 1650 ± 280 | – | – | – | – | < 1e-05 |
| U46G U65G | 0.00226 ± 0.00027 | 2130 ± 380 | 0.000189 ± 3.4e-05 | 0.000467 ± 7.5e-05 | 0.00124 ± 0.00017 | 0.0019 ± 0.0003 | 4.1e-05 ± 8.8e-06 |
| G29A G66U | 0.000177 ± 5.1e-05 | – | – | 6.51e-05 ± 2e-05 | 6.95e-05 ± 1.9e-05 | 0.00015 ± 1.9e-05 | – |
| C11G G37U | 1.74e-05 ± 6.6e-06 | – | – | – | < 1e-05 | < 1e-05 | < 1e-05 |
| G32U C68G | 1.3e-05 ± 1.3e-06 | – | – | – | – | – | – |
| G29U U30A | 0.000337 ± 3.2e-05 | 1900 ± 380 | – | 8.73e-05 ± 1.5e-05 | 0.000198 ± 3.2e-05 | 0.000278 ± 4e-05 | – |
| G60A C61A | < 1e-05 | – | < 1e-05 | – | – | – | < 1e-05 |
| G32U A36U | < 1e-05 | – | < 1e-05 | – | – | < 1e-05 | < 1e-05 |
